According to the nanobody polyreactivity screen of Harvey et al. (2022):

assay: yeast display, Sf9 membrane polyspecificity reagent, FACS + sequencing; frameworks hold sequencing errors
How it was run: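 Polyreactivity labels are assigned by the sorting gate from which each nanobody was recovered. The gates were low and high (top ~1%), set on anti-HA fluorescence for expression and streptavidin fluorescence for reagent binding. Before sorting, galactose-induced (36–48 hours) yeast display cells were stained for 1 hour at 4 °C with 10% biotinylated, detergent-solubilized Sf9 membrane reagent.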

Sequence	polyreactivity (PSR sort gate)
QVQLVESGGGLVQAGGSLRLSCAASGFTFSPYAMGWYRQATGKERELVAAIRWTDGSTYYADSVKGRFTISRDNAKNTVYLQMNSLKPEDTAVYYCAAYWYHNIGGYGPGLNYWGEGTQVTVSS	high polyreactivity
QVQLVESGGGLVQAGGSLRLSCAASGFTFSQYAAMGWYRQAPGKERELVAAINISGSTNYADSVKGRFTISRDNAKNTVYLQMNSLKPEDTAVYYCNADVAPGIFYGYDSWGQGTQVTVSS	low polyreactivity
QVQLVESGGGLVQAGGSLRLSCAASGFTFSQYAMGWYRQAPGKERELVAAINSRGGSTYYADSVKGRFTISRDNAKNTVYLQINSLKPEDTAVYYCNAVISGYPYEYDYWGQGTQVTVSS	high polyreactivity
QVQLVESGGGLVQAGGSLRLSCAASGFTFSQYAMGWYRQAPGKERELVAAITFSGDSTYYADSVKGRFTISRDNAKNTVYLQMNSLKPEDTAVYYCNADDWWGGYDYWGQGTQVTVSS	low polyreactivity
QVQLVESGGGLVQAGGSLRLSCAASGFTFSRNAMGWYRQAPGKERELDAAITSSGGSTYYADSVKGRFTISRDNAKNTVYLQMNSLKPEDTAVYYCNVVPIWRKYLSQIYGYWGQGTQVTVSS	high polyreactivity
QVQLVESGGGLVQAGGSLRLSCAASGFTFSRNDMGWYRQAPGKERELLASITTSGGGTYYADSVKGRFTISRDNAKNTVYLQMNSLKPEDTAVYYCAKDWFPWAGYYDFGYWGQGTQVTVSS	low polyreactivity
QVQLVESGGGLVQAGGSLRLSCAASGFTFSRYAMGWYRQAPGKERELVAAITSGGSTYYADSVKGRFTISRDNAMNTVYLQMNSLKPEDTAVYYCAVGVAEFFGYGYWGQGTQVTVSS	high polyreactivity
QVQLVESGGGLVQAGGSLRLSCAASGFTFSRYAMGWYRQAPGKERELVAVITWNGGRTYYADSVKGRFTISRDNAKNTVYLLMNSLKPEDTAVYYCKAYYFFLPYRYSTYDYWGQGTQVTVSS	high polyreactivity
QVQLVESGGGLVQAGGSLRLSCAASGFTFSRYTMGWYRQAPGKERELVAAITSSGGSTYYADSVKGRFTISRDNAKNTVYLQMNSLKPEDTAVYYCAARRRESDQRGYCGQGTQVTVSS	high polyreactivity
QVQLVESGGGLVQAGGSLRLSCAASGFTFSSYAMGWYRQAPGKERELVAAISYSGGSTYYADSVKGRFTISRDNAKNTVYLQMNSLKPEDTAVYYCAAQRGSEYYWGQGTQVTVSS	high polyreactivity
QVQLVESGGGLVQAGGSLRLSCAASGFTFSSYAMGWYRQAPGKERELVAAITISGGRTYYSDSVKGRFTISRDNAKNTVYLQMNSLKPEDTAVYYCNTDYGRRYDYWGQGTQVTVSS	high polyreactivity
QVQLVESGGGLVQAGGSLRLSCAASGFTFSTNAMGWYRPAPGKERELVAAISYGGVSTYYADSVKGRFTISRDNAKNTVYLQMNSLKPEDTAVYYCAAGRITTRLYGDPFDYWGQGTQVTVSS	low polyreactivity
QVQLVESGGGLVQAGGSLRLSCAASGFTFSTNAMGWYRPAPGKEREVVAAITWRGGSTYYADSVKGRFTISRDNAKNTVYLQMNSLKPEDTAVYYCARRYRGSHVSYYKKFDYWGQGTQVTVSS	low polyreactivity
QVQLVESGGGLVQAGGSLRLSCAASGFTFSTNAMGWYRQAPGKERELVAAISCTGGSTYYADSVKGRFTISRDNAKNTVYLQMNSLKPEDTAVYYCATKFFNPGMYFWGQGTQVTVSS	high polyreactivity
QVQLVESGGGLVQAGGSLRLSCAASGFTFSTYAMGWYRQAPGKERECVAAISSGGTTNYADSVKGRFTISRDNAKNTVYLQMNSLKPEDSAVYYCAADWYRYYEYGAYGYWGQGTQVTLSS	low polyreactivity
QVQLVESGGGLVQAGGSLRLSCAASGFTFSTYAMGWYRQAPGKERELVAAISFSGGSTYYADSVKGRFTISRDNAMNSVYLQMNRLKPEDTAVYYCARAYTKYFEIYFIYALLYGHWGQGTQVTVSS	low polyreactivity
QVQLVESGGGLVQAGGSLRLSCAASGFTFSVNAMGRYRQAPGKERELVAAISSRGSITYYADSVKGRFTISRDNAKNTVYLQMNSLKPEDPAVYYCNAYKYKSPGDYWGQGTQVTVSS	high polyreactivity
QVQLVESGGGLVQAGGSLRLSCAASGFTFSVYAMGWYRQAPGKERELVAAINWSGSTTYYADSVKGRFTISRDNAKNTVYLQMNSLKPEDTAVYYCAVEGRTTWPFRTYGYWGQGTQVTVSS	high polyreactivity
QVQLVESGGGLVQAGGSLRLSCAASGFTFSVYAMGWYRQAPGKERELVAAISDSGGRTYYADSVKGRFTISRDNEKNTVYLQMNSLKPEDSAVYYWKARPAGRGYNYWGQGTQVTVSS	high polyreactivity
QVQLVESGGGLVQAGGSLRLSCAASGFTFSVYAMGWYRQAPGKERELVAAISRGGGGTYYADSVKGRFTISRDNAKNTVYLQMNSLKPEDTAVYYCNAAGYPQYKGYDYWGQGTQVTVSS	high polyreactivity
QVQLVESGGGLVQAGGSLRLSCAASGFTFSVYAMGWYRQAPGKERELVADIDWSGGSTYYADSVKGRFTISRDNAKNTVYLQMNSLNPEDTAVYYCAADYYYPDSYVQGTSGEYWGQGTQVTVSS	low polyreactivity
QVQLVESGGGLVQAGGSLRLSCAASGFTFSWYALGWYRQAPGKESELVAAINWSGTSTYYADSVKGRFTISRDNAKNTVYLQMNSLKPEDTAVYYCNVVVYRWSPVSKLDYWGQGTQVTVSS	high polyreactivity

Sequence	polyreactivity (PSR sort gate)
QVQLVESGGGLVQAGGSLRLSCAASGFTFSWYAMGWYRQAPGKERELVAAINADGGTTYYADSVKGRFTISRDNAKNTVYLQMHSLKPEDTAVYYFAAELSVDKYDYWGQGTQVSVSS	low polyreactivity
QVQLVESGGGLVQAGGSLRLSCAASGFTFSWYAMGWYRQAPGKERELVAAISLSGDRTYYADSVKGRFTISRDNAKNSVYLQMNSLKPDDTAVYYCVFAFEYFYWGQGTQVTVSS	low polyreactivity
QVQLVESGGGLVQAGGSLRLSCAASGFTFSYNAMGWSRQAPGKERELVAAISSAGSTYYADSVKGRFTISRDNAKNTVYLQMNSLKPEDTAVYYCNAYRRSYRWYGDLGEYWGQGTQVTVSS	high polyreactivity
QVQLVESGGGLVQAGGSLRLSCAASGFTFSYNAMGWYRQAPGKERELVAAIDWGGGSTYSYSVKGRFTISRDNAKNTVYLQMNSLKPEDTAVYYCAAYIPSSGRNPEIGVEYDYWGQGTQVTVSS	low polyreactivity
QVQLVESGGGLVQAGGSLRLSCAASGFTFSYNAMGWYRQAPGKERELVAAISSTGTSTYYADSVKGRFTISRDNAKNTVYLQMNSLKPEDTAVYYCNAYGYDGYYAGRHGYWGQGTQVTVSS	low polyreactivity
QVQLVESGGGLVQAGGSLRLSCAASGFTFSYYAMGWSRPEPGKERELVAAISSSASRTYYAESVKGRFTISRDNAKNTVYFQMNSLKPEDTAVYYCAARYSESRTRHLDYWGQGTQVTVSS	high polyreactivity
QVQLVESGGGLVQAGGSLRLSCAASGFTFSYYAMGWYRQAPGKERELVAAISSGGSTNYADSVKGRFTISRDNAKNTVYLQMNSLKPEVTAVYYCNVRLYYPTYASMEYWGQGTQVTVSS	low polyreactivity
QVQLVESGGGLVQAGGSLRLSCAASGFTFSYYAMGWYRQAPGKERELVASISRSGNTYYADSVKGRFTISRDNAKNTVYLQMNSLKPEDTAVYYCNARRHYRRYSYRHNYWGQGTQVTVSS	high polyreactivity
QVQLVESGGGLVQAGGSLRLSCAASGFTFTAYAMGWYRQAPGKERELVAAINWSGSRTYYADSVKGRFTISRDNAKNTVYLQMNSLIPEDSAVYYCNTATSKSSYRHYDYWGQGTQVTVSS	high polyreactivity
QVQLVESGGGLVQAGGSLRLSCAASGFTFTGNAMGWYRQAPGKERELVAAITSGTSTYYADSVKGRFTISRDNAKNTVYLQMNSLKPEDTAVYYCAKEYPLDGRGSDYCGQGTQVTVSS	low polyreactivity
QVQLVESGGGLVQAGGSLRLSCAASGFTFTKYDMGWYRQAPGKETELVAVITWSGGSTYYADSVKGRFTISRDNAKNTVYLQMNSLKPEDTAVYYCNAEAPRYTYGRMDYWGQGTQVTVSS	low polyreactivity
QVQLVESGGGLVQAGGSLRLSCAASGFTFTPNAMGSYRQAPGKERELVAAITSGGNTYADSVKGRFTISRDNAKNTVYLQMNSLKPEDTAVYYCAKGEGYWYIARYLPVGYGYWGQGTQVTVSS	low polyreactivity
QVQLVESGGGLVQAGGSLRLSCAASGFTFTPNAMGWYRQAPGKERELVAITWSDGNTYYADSVKGRFTISRDNAKNTVYLQMNSLKPEDTAVYYCNADSTQGAWWPWLNDYWGQGTQVTVSS	high polyreactivity
QVQLVESGGGLVQAGGSLRLSCAASGFTFTQYGMGWYRQAPGKEREFVATIRFSGDNTYYADSVKGRFTISRDNAKNTVYLQMNSLKPEDTAVYYCNADNRAFFVYPVSKRYDSWGQGTQVTVSS	low polyreactivity
QVQLVESGGGLVQAGGSLRLSCAASGFTFTRNAMGWYRQAPGKERELVAAISSSAGSTSYADSVKGRFTISRDNAKNTVYLQMNSLKPEDTAVYYCAKSYRSSRRYNYWGQGTQVTVSS	high polyreactivity
QVQLVESGGGLVQAGGSLRLSCAASGFTFTRYAMGWYRPAPGKERELVAAISWNGGSMYYADSVKGRFTISRDNAKNTVYLQMNSLKPEDTAVYYCAVRFKYQWSKFGYWGQGTQVTVSS	high polyreactivity
QVQLVESGGGLVQAGGSLRLSCAASGFTFTRYTMGWYRQAPGKERELVAAITSGGRTNYADSVKGRFTISRDNAKNTVYLQMNSLKPEDTAVYYCAARYVYYWAYGNEYWGHGTQVTVSS	high polyreactivity
QVQLVESGGGLVQAGGSLRLSCAASGFTFTSNVMGWYREAPGKEWELVADISASDGRTYYADSVKGRFTISRDNAKNTVYLQMNSLKREDTAVYYCNVSSRRLRGLDYWGQGTQVTVSS	low polyreactivity
QVQLVESGGGLVQAGGSLRLSCAASGFTFTSYAMGWYRQAPGKEREFVAAIRRSGSGTYYADSVKGRFTISRDNAKNNVYLQMNSLKPEDTAVYYCAFVPPRLYYHYDYWGQGTQVTVSS	high polyreactivity
QVQLVESGGGLVQAGGSLRLSCAASGFTFTSYAMGWYRQAPGKERELVAAITVTGGRTYYADSVKGRFTISRDNAKNTVYLQMNSLKPEDTAVYYCATVFSLSSPYWKHYYWGQGTQVTVSS	high polyreactivity
QVQLVESGGGLVQAGGSLRLSCAASGFTFTTYDMGWYRQAPGKERELVAAINSGGSTNYADSVKGRFTISRDNAKNTVYLQMNSLKPEDTAVYYCAAEFYWYYNNFFEDRYYWGQGTQVTVSS	low polyreactivity
